Assay results as given in doi:10.1101/2020.02.01.930206 (bioRxiv, 2020).

B1: full-length mouse MMS19 (natural protein)
chain: MAAATGLEEAVAPMGALCGLVQDFVMGQQEGPADQVAADVKSGGYTVLQVVEALGSSLENAEPRTRARGAQLLSQVLLQCHSLLSEKEVVHLILFYENRLKDHHLVVPSVLQGLRALSMSVALPPGLAVSVLKAIFQEVHVQSLLQVDRHTVFSIITNFMRSREEELKGLGADFTFGFIQVMDGEKDPRNLLLAFRIVHDLISKDYSLGPFVEELFEVTSCYFPIDFTPPPNDPYGIQREDLILSLRAVLASTPRFAEFLLPLLIEKVDSEILSAKLDSLQTLNACCAVYGQKELKDFLPSLWASIRREVFQTASERVEAEGLAALHSLTACLSCSVLRADAEDLLGSFLSNILQDCRHHLCEPDMKLVWPSAKLLQAAAGASARACEHLTSNVLPLLLEQFHKHSQSNQRRTILEMILGFLKLQQKWSYEDRDERPLSSFKDQLCSLVFMALTDPSTQLQLVGIRTLTVLGAQPGLLSAEDLELAVGHLYRLTFLEEDSQSCRVAALEASGTLATLYPGAFSRHLLPKLAEELHKGESDVARADGPTKCSRHFRCLQALSAVSTHPSIVKETLPLLLQHLCQANKGNMVTESSEVVAVCQSLQQVAEKCQQDPESYWYFHKTAVPCLFALAVQASMPEKESSVLRKVLLEDEVLAALASVIGTATTHLSPELAAQSVTCIVPLFLDGNTSFLPENSFPDQFQPFQDGSSGQRRLVALLTAFVCSLPRNVEIPQLNRLMRELLKQSCGHSCPFSSTAATKCFAGLLNKQPPGQQLEEFLQLAVGTVEAGLASESSRDQAFTLLLWVTKALVLRYHPLSACLTTRLMGLLSDPELGCAAADGFSLLMSDCTDVLTRAGHADVRIMFRQRFFTDNVPALVQGFHAAPQDVKPNYLKGLSHVLNRLPKPVLLPELPTLLSLLLEALSCPDSVVQLSTLSCLQPLLLEAPQIMSLHVDTLVTKFLNLSSSYSMAVRIAALQCMHALTRLPTSVLLPYKSQVIRALAKPLDDKKRLVRKEAVSARGEWFLLGSPGS
B2: human CIAO1-CIAO2B core complex (complex)
chain 1: not shown
chain 2: MVGGGGVGGGLLENANPLIYQRSGERPVTAGEEDEQVPDSIDAREIFDLIRSINDPEHPLTLEELNVVEQVRVQVSDPESTVAVAFTPTIPHCSMATLIGLSIKVKLLRSLPQRFKMDVHITPGTHASEHAVNKQLADKERVAAALENTHLLEVVNQCLSARS
B3: human MMS19^710-1030-CIAO1-CIAO2B complex (complex)
chain 1: GQRRLIALLMAFVCSLPRNVEIPQLNQLMRELLELSCCHSCPFSSTAAAKCFAGLLNKHPAGQQLDEFLQLAVDKVEAGLGSGPCRSQAFTLLLWVTKALVLRYHPLSSCLTARLMGLLSDPELGPAAADGFSLLMSDCTDVLTRAGHAEVRIMFRQRFFTDNVPALVQGFHAAPQDVKPNYLKGLSHVLNRLPKPVLLPELPTLLSLLLEALSCPDCVVQLSTLSCLQPLLLEAPQVMSLHVDTLVTKFLNLSSSPSMAVRIAALQCMHALTRLPTPVLLPYKPQVIRALAKPLDDKKRLVRKEAVSARGEWFLLGSPGS
chain 2: not shown
chain 3: B2 chain 2
B4: human MMS19 (subunit of the purified CTC) (natural protein)
chain: MAAAAAVEAAAPMGALWGLVHDFVVGQQEGPADQVAADVKSGNYTVLQVVEALGSSLENPEPRTRARAIQLLSQVLLHCHTLLLEKEVVHLILFYENRLKDHHLVIPSVLQGLKALSLCVALPPGLAVSVLKAIFQEVHVQSLPQVDRHTVYNIITNFMRTREEELKSLGADFTFGFIQVMDGEKDPRNLLVAFRIVHDLISRDYSLGPFVEELFEVTSCYFPIDFTPPPNDPHGIQREDLILSLRAVLASTPRFAEFLLPLLIEKVDSEVLSAKLDSLQTLNACCAVYGQKELKDFLPSLWASIRREVFQTASERVEAEGLAALHSLTACLSRSVLRADAEDLLDSFLSNILQDCRHHLCEPDMKLVWPSAKLLQAAAGASARACDSVTSNVLPLLLEQFHKHSQSSQRRTILEMLLGFLKLQQKWSYEDKDQRPLNGFKDQLCSLVFMALTDPSTQLQLVGIRTLTVLGAQPDLLSYEDLELAVGHLYRLSFLKEDSQSCRVAALEASGTLAALYPVAFSSHLVPKLAEELRVGESNLTNGDEPTQCSRHLCCLQALSAVSTHPSIVKETLPLLLQHLWQVNRGNMVAQSSDVIAVCQSLRQMAEKCQQDPESCWYFHQTAIPCLLALAVQASMPEKEPSVLRKVLLEDEVLAAMVSVIGTATTHLSPELAAQSVTHIVPLFLDGNVSFLPENSFPSRFQPFQDGSSGQRRLIALLMAFVCSLPRNVEIPQLNQLMRELLELSCCHSCPFSSTAAAKCFAGLLNKHPAGQQLDEFLQLAVDKVEAGLGSGPCRSQAFTLLLWVTKALVLRYHPLSSCLTARLMGLLSDPELGPAAADGFSLLMSDCTDVLTRAGHAEVRIMFRQRFFTDNVPALVQGFHAAPQDVKPNYLKGLSHVLNRLPKPVLLPELPTLLSLLLEALSCPDCVVQLSTLSCLQPLLLEAPQVMSLHVDTLVTKFLNLSSSPSMAVRIAALQCMHALTRLPTPVLLPYKPQVIRALAKPLDDKKRLVRKEAVSARGEWFLLGSPGS

How the values were obtained:
[1] = target: the molecule itself; test: crystal structure
[2] = target: T1, human primase (PriL-PriS heterodimer) (human, UniProt P49643;P49642); test: ITC
T1 sequence 1: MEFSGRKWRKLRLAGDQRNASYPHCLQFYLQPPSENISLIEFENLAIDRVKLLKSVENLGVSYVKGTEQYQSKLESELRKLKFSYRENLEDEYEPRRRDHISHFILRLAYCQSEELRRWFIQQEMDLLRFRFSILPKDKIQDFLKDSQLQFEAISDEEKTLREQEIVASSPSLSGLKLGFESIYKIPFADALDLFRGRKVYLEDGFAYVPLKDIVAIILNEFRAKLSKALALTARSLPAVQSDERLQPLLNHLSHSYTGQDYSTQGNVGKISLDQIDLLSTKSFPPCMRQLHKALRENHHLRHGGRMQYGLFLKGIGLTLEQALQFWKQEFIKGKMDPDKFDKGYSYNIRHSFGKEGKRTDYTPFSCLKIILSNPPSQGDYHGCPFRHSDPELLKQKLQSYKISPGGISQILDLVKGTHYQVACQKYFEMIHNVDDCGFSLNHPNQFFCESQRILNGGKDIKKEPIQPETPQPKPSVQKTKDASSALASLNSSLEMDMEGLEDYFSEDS
T1 sequence 2: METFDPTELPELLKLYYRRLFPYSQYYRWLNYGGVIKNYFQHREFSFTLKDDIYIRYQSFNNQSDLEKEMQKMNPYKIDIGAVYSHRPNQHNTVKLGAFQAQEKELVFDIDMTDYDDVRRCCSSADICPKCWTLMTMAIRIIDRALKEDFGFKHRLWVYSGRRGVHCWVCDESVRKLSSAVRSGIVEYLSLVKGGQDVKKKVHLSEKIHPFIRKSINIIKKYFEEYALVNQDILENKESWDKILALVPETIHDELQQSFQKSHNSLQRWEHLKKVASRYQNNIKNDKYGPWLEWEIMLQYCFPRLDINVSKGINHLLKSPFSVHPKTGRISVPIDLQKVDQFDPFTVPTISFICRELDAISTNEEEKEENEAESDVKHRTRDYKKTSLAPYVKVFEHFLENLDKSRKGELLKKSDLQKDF

[3] = target: T2, full-length mouse DNA2 (mouse, UniProt Q6ZQJ5 1-1062); test: cryo-EM structure
T2 sequence: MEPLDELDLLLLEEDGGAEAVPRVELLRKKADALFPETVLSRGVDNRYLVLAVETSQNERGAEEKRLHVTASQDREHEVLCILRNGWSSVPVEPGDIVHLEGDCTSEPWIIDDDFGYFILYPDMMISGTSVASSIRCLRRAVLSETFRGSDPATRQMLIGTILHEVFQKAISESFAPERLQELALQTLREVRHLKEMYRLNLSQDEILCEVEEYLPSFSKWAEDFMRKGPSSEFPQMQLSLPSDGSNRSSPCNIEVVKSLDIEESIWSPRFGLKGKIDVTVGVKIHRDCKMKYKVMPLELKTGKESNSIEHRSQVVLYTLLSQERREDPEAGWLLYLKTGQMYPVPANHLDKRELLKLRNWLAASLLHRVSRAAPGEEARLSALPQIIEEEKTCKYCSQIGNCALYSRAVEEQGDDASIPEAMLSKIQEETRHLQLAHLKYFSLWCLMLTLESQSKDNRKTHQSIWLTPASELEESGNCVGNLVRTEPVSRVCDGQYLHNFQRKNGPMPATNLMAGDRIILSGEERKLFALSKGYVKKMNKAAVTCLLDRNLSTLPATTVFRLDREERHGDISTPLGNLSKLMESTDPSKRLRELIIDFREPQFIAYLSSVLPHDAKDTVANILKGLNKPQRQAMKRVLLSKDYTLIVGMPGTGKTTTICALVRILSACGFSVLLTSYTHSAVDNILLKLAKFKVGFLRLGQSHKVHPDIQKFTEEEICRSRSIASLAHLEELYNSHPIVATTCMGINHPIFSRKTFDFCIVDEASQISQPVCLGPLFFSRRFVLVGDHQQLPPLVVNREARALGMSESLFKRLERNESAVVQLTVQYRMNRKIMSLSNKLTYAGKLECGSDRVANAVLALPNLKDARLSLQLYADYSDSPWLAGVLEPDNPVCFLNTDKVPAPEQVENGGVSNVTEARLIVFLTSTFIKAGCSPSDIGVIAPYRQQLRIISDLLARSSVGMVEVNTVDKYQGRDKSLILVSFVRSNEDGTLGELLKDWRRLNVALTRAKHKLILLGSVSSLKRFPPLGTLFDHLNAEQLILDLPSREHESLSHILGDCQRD

Binder | Kd [2] | other results
B1 | – | binding result [1]: binds
B2 | 5.4 µM | –
B3 | 0.832 µM | –
B4 | – | binding result [3]: binds
